Values quoted from earlier work in publication PMC6258485.
pKd: −log10 of the molar value.

Target: CD55 (Homo sapiens) (UniProt P08174)
Chain of UniProt P08174 (P08174 35-353): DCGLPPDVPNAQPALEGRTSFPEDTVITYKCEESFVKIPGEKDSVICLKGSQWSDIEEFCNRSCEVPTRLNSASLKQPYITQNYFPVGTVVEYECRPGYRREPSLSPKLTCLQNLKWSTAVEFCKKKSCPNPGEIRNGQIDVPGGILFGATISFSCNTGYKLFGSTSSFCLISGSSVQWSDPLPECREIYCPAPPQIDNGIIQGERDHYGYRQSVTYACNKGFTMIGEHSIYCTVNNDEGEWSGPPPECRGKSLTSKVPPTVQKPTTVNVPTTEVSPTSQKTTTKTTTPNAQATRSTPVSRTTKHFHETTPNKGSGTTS

- pKd: 4.07
Substance: CD97 (from UniProt P48960)
